Source: article PMC2963451

Molecular target: Gag (GagΔp6) (HIV-1 BH10, UniProt P03347 1-447)
Assay: fluorescence anisotropy

B1: JL943 (ssRNA)
RNA: AGCUGCUUUUUGCCUGUACU
B1 showed a Kd of 8 nM.

B2: JL936 (ssDNA)
DNA: AGCTGCTTTTTGCCTGTACT
For B2, the Kd was 9 nM.
